Results reported in article PMC6066219 (PLoS ONE, 2018).
Marks after values point to notes of the source that are not given here. Starred links: 1 amine or outer side, 2 acyl side, 3 side chain; linkers in the order of their positions; H or OH if unused. Positions of bridges follow the written chain, without caps; N, C: chain ends. Non-standard residues stand in square brackets, D forms with d. Residues, ends and D or L forms follow the SMILES beside them. Chains are numbered I, II in the order given. *: point of attachment. X1 = CC1=CC(=O)N(O)CCCC(NC(=O)CCN2C(=O)CC([*:3])C2=O)C(=O)OCCC(C)=CC(=O)N(O)CCCC(NC(=O)CCN2C(=O)CC([*:2])C2=O)C(=O)OCCC(C)=CC(=O)N(O)CCCC(NC(=O)CCN2C(=O)CC([*:1])C2=O)C(=O)OCC1; X2 = CC(=O)NC1CCCN(O)C(=O)C=C(C)CCOC(=O)C(NC(=O)CCN2C(=O)CC([*:1])C2=O)CCCN(O)C(=O)C=C(C)CCOC(=O)C(NC(=O)CCN2C(=O)CC([*:2])C2=O)CCCN(O)C(=O)C=C(C)CCOC1=O; X3 = CC(=O)NC1CCCN(O)C(=O)C=C(C)CCOC(=O)C(NC(=O)CCN2C(=O)CC(*)C2=O)CCCN(O)C(=O)C=C(C)CCOC(=O)C(NC(C)=O)CCCN(O)C(=O)C=C(C)CCOC1=O; Nle = CCCC[C@H](N)C(=O)O; Mpa = O=C(O)CCS

Key:
[1] = format: physicochemical; conditions: for logD: pH 7.4
Description: To determine the distribution of the ^68Ga-radiolabelled conjugates between an organic and aqueous layer aliquots (50 μL) of the tracers (10 μM) were diluted in 450 μL PBS and after adding 500 μL octanol the mixture was vortexed at 1400 rpm (MS 3 basic vortexer, IKA, Staufen, Germany) for 15 min at RT followed by centrifugation for 2 min at 4500 rpm. Subsequently, aliquots (100 μL) of both layers were collected and measured in the gamma counter (Wizard2 3”, Perkin Elmer, Waltham, MA, USA) followed by logD calculation using Excel (n = 3, six replicates).

CCK2 receptor = molecular target: T1, CCK2 receptor (Homo sapiens, UniProt P32239); experiment: Receptor binding affinity studies (IC50) on whole A431-CCK2R cells vs 125I-[Leu15]-gastrin I; conditions: natGa-labelled competitor, 125I-[Leu15]-Gastrin radioligand
T1 construct: expressed in transfected cells; host or cells: A431 human epidermoid carcinoma cells (A431-CCK2R), gift from Dr. L. Aloj
T1 sequence (P32239 1-447): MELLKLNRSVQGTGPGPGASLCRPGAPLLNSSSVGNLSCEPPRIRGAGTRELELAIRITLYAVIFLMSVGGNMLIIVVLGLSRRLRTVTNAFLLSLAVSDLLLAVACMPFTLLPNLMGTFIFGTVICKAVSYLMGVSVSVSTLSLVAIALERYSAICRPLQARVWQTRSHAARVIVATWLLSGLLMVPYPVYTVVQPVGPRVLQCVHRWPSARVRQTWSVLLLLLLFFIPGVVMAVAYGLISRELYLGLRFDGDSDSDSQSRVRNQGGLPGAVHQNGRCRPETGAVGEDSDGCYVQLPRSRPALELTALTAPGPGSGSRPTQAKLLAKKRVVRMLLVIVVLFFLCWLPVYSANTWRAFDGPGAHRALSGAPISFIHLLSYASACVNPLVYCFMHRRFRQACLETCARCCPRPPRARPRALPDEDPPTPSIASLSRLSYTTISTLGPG
Description: Binding affinity studies on whole A431-CCK2R cells were performed as previously described. Briefly, 100 μL of cell suspension (5 × 10^6 cells/mL) was added to each well of a 96-well MultiScreen Filter Plate HTS (1 μm glass fiber filter, Merck Millipore, Darmstadt, Germany). Hereafter competitor solution was added with increasing concentrations [0.001−1.000 nM] and after 10 min at RT human [Leu^15]-gastrin I radiolabelled with iodine-125 as described in [16] was added (4.5 × 10^4 cpm) and the plate was maintained under shaking conditions (Compact shaker KS-15 control, 200/min) at ambient temperature. After 1 h each well was washed twice with 200 μL TRIS-buffered saline (pH 7.3), filters were collected and measured in the gamma counter followed by nonlinear curve fitting with Origin 6.1 software (Northampton, MA, USA) to calculate the IC50 values.

in vivo = experiment: in vivo; set-up: species or system BALB/c nude mice; conditions: female, BALB/c nude, mouse, iv, total radioactivity
Description: (§1) Ex vivo biodistribution studies were conducted using female 8−10 weeks old athymic BALB/c nude mice (Charles River Laboratories, Sulzfeld, Germany). Tumour xenografts were induced by subcutaneous injection of 2 × 10^6 A431-CCK2R cells (receptor positive) in the right and 2 × 10^6 A431-mock cells (receptor negative) in the left flank and tumours were allowed to grow until they had reached a volume of 0.3–0.6 cm^3.To evaluate the biodistribution profile double tumour xenografted BALB/c nude mice (n = 3) were intravenously injected with 1–2 MBq of ^68Ga-labelled peptides (0.1–0.2 nmol). The animals were sacrificed by cervical dislocation after 1 h and 4 h in case of the trimer. The collected samples were measured in the gamma counter and the results were calculated as percentage of injected activity per gram tissue (% IA/g).

[2] = system: A431-CCK2R/A431-mock tumour xenografted BALB/c nude mice; experiment: in vivo; conditions: mouse
Description: as §1

Structure (SMILES)	logD [1]	tissue uptake at 1 h (in vivo; A431-CCK2R tumour uptake) [%ID/g]	tissue uptake at 1 h (in vivo; A431-mock tumour uptake) [%ID/g]	tissue uptake at 1 h (in vivo; Blood uptake) [%ID/g]	tissue uptake at 1 h (in vivo; Bone uptake) [%ID/g]	tissue uptake at 1 h (in vivo; Heart uptake) [%ID/g]	tissue uptake at 1 h (in vivo; Intestine uptake) [%ID/g]	tissue uptake at 1 h (in vivo; Kidneys uptake) [%ID/g]	tissue uptake at 1 h (in vivo; Liver uptake) [%ID/g]	tissue uptake at 1 h (in vivo; Lung uptake) [%ID/g]	tissue uptake at 1 h (in vivo; Muscle uptake) [%ID/g]	tissue uptake at 1 h (in vivo; Pancreas uptake) [%ID/g]	tissue to tissue ratio at 1 h (in vivo; Ratio T/O tumour-to-Blood)	tissue to tissue ratio at 1 h (in vivo; Ratio T/O tumour-to-Bone)	tissue to tissue ratio at 1 h (in vivo; Ratio T/O tumour-to-Heart)	tissue to tissue ratio at 1 h (in vivo; Ratio T/O tumour-to-Intestine)	tissue to tissue ratio at 1 h (in vivo; Ratio T/O tumour-to-Kidneys)	tissue to tissue ratio at 1 h (in vivo; Ratio T/O tumour-to-Liver)	tissue to tissue ratio at 1 h (in vivo; Ratio T/O tumour-to-Lung)	tissue to tissue ratio at 1 h (in vivo; Ratio T/O tumour-to-Muscle)	further results
CCCC[C@H](NC(=O)[C@H](Cc1c[nH]c2ccccc12)NC(=O)CNC(=O)[C@H](Cc1ccc(O)cc1)NC(=O)[C@H](C)NC(=O)[C@@H](CCC(=O)O)NC(=O)CCSC1CC(=O)N(CCC(=O)NC2CCCN(O)C(=O)C=C(C)CCOC(=O)C(NC(=O)CCN3C(=O)CC(SCCC(=O)N[C@H](CCC(=O)O)C(=O)N[C@@H](C)C(=O)N[C@@H](Cc4ccc(O)cc4)C(=O)NCC(=O)N[C@@H](Cc4c[nH]c5ccccc45)C(=O)N[C@@H](CCCC)C(=O)N[C@@H](CC(=O)O)C(=O)N[C@@H](Cc4ccccc4)C(N)=O)C3=O)CCCN(O)C(=O)C=C(C)CCOC(=O)C(NC(=O)CCN3C(=O)CC(SCCC(=O)N[C@H](CCC(=O)O)C(=O)N[C@@H](C)C(=O)N[C@@H](Cc4ccc(O)cc4)C(=O)NCC(=O)N[C@@H](Cc4c[nH]c5ccccc45)C(=O)N[C@@H](CCCC)C(=O)N[C@@H](CC(=O)O)C(=O)N[C@@H](Cc4ccccc4)C(N)=O)C3=O)CCCN(O)C(=O)C=C(C)CCOC2=O)C1=O)C(=O)N[C@@H](CC(=O)O)C(=O)N[C@@H](Cc1ccccc1)C(N)=O (stereo partly drawn) [Trimer-Nle] (I: [Mpa][dE]AYGW[Nle]DF-NH2 / II: [Mpa][dE]AYGW[Nle]DF-NH2 / III: [Mpa][dE]AYGW[Nle]DF-NH2; linker I:1-II:1-III:1 via X1)																					Distribution coefficient logD (pH 7.4) [1]: -1.80 ± 0.16; IC50 (CCK2 receptor): 20.9 ± 1.13 nM
CCCC[C@H](NC(=O)[C@H](Cc1c[nH]c2ccccc12)NC(=O)CNC(=O)[C@H](Cc1ccc(O)cc1)NC(=O)[C@H](C)NC(=O)[C@@H](CCC(=O)O)NC(=O)CCSC1CC(=O)N(CCC(=O)NC2CCCN(O)C(=O)C=C(C)CCOC(=O)C(NC(=O)CCN3C(=O)CC(SCCC(=O)N[C@H](CCC(=O)O)C(=O)N[C@@H](C)C(=O)N[C@@H](Cc4ccc(O)cc4)C(=O)NCC(=O)N[C@@H](Cc4c[nH]c5ccccc45)C(=O)N[C@@H](CCCC)C(=O)N[C@@H](CC(=O)O)C(=O)N[C@@H](Cc4ccccc4)C(N)=O)C3=O)CCCN(O)C(=O)C=C(C)CCOC(=O)C(NC(C)=O)CCCN(O)C(=O)C=C(C)CCOC2=O)C1=O)C(=O)N[C@@H](CC(=O)O)C(=O)N[C@@H](Cc1ccccc1)C(N)=O (stereo partly drawn) [Dimer-Nle] (I: [Mpa][dE]AYGW[Nle]DF-NH2 / II: [Mpa][dE]AYGW[Nle]DF-NH2; linker I:1-II:1 via X2)	-2.05 ± 0.19	5 ± 0.79	0.65 ± 0.14	1.4 ± 0.48	0.8 ± 0.37	0.62 ± 0.12	0.64 ± 0.12	12.8 ± 0.16	3.49 ± 0.94	1.54 ± 0.33	0.36 ± 0.12	0.98 ± 0.28	4 ± 1.3	7.6 ± 3.2	8.2 ± 1.2	8.1 ± 1.8	0.39 ± 0.06	1.5 ± 0.4	3.3 ± 0.5	15.8 ± 5.8	tissue to tissue ratio at 1 h (in vivo; Ratio T/O tumour-to-Pancreas): 5.4 ± 1.3; tissue to tissue ratio at 1 h (in vivo; Ratio T/O tumour-to-Spleen): 5.2 ± 0.5; tissue to tissue ratio at 1 h (in vivo; Ratio T/O tumour-to-Stomach): 2.2 ± 0.3; tissue uptake at 1 h (in vivo; Spleen uptake): 0.95 ± 0.07 %ID/g; tissue uptake at 1 h (in vivo; Stomach uptake): 2.25 ± 0.17 %ID/g; Ratio T/O tumour-to-A431-mock [2]: 8.0 ± 1.8^c
CCCC[C@H](NC(=O)[C@H](Cc1c[nH]c2ccccc12)NC(=O)CNC(=O)[C@H](Cc1ccc(O)cc1)NC(=O)[C@H](C)NC(=O)[C@@H](CCC(=O)O)NC(=O)CCSC1CC(=O)N(CCC(=O)NC2CCCN(O)C(=O)C=C(C)CCOC(=O)C(NC(C)=O)CCCN(O)C(=O)C=C(C)CCOC(=O)C(NC(C)=O)CCCN(O)C(=O)C=C(C)CCOC2=O)C1=O)C(=O)N[C@@H](CC(=O)O)C(=O)N[C@@H](Cc1ccccc1)C(N)=O (stereo partly drawn) [Monomer-Nle] ([Mpa](X3)[dE]AYGW[Nle]DF-NH2)	-2.69 ± 0.14	1.97 ± 0.25	0.22 ± 0.07	0.25 ± 0.07	0.3 ± 0.12	0.12 ± 0.03	0.36 ± 0.12	2.72 ± 0.29	0.17 ± 0.01	0.25 ± 0.03	0.1 ± 0.02	0.24 ± 0.02	9 ± 3.6	7.9 ± 3.1	17.6 ± 5.2	6.6 ± 3.6	0.75 ± 0.18	11.5 ± 2	8.1 ± 2.1	22.1 ± 6	tissue to tissue ratio at 1 h (in vivo; Ratio T/O tumour-to-Pancreas): 8.4 ± 1.6; tissue to tissue ratio at 1 h (in vivo; Ratio T/O tumour-to-Spleen): 19.8 ± 4; tissue to tissue ratio at 1 h (in vivo; Ratio T/O tumour-to-Stomach): 3.1 ± 0.9; tissue uptake at 1 h (in vivo; Spleen uptake): 0.1 ± 0.03 %ID/g; tissue uptake at 1 h (in vivo; Stomach uptake): 0.66 ± 0.11 %ID/g; Ratio T/O tumour-to-A431-mock [2]: 9.8 ± 2.2^b
